According to the DeepSol protein solubility set:

Experiment: soluble on expression in E. coli; label from the status in PepcDB or PDB records

| Sequence | soluble on expression in E. coli |
| --- | --- |
| MTRSENFILDFTHIYIDENIEQTENIVRIDCSDILGTDLYCTKEGEAEIQKRIENFSINGVHFIDSGNYHYITKIMTDKINKKFSLVLYDHHTDMQKPMVEGMTSCGDWAAQVIEQNENLEQLILVGASEADIQQINVKNQSKLITFSAEELRNNSGREKLDLIETDVPFYISIDKDILDKHYIETNWSQGHMSLGMLEHLLKFFLKDKKIIGVDICGECQIGLPFPEYIEAEEKNAETNIELYEYIGRYMGK | not soluble |
| MGSDKIHHHHHHMDVIDAVNRRMSVRAFKPDPVDAGLIRDLLEAAARAPSGGNLQPWRVQVVGGAPLEALKAAMLQRVASPDPTEYDVYPANLWEPLRSRRFQVGEDMYGALGIPREDKLQRLQWFANNGQGFGAPVQLFFSIDRRCGPPQWSDVGMLMQTFMLLAVERGLDTCPQEFWSHYNKLVDEHVGLPEGHMLFSGMALGYRDADAPVNNFRSRRAPFEEWAELKGF | not soluble |
| MGHHHHHHSHMVSPSKAVIVPGKIGGDETTHGWYGWVKKELEKIPGFQCLAKNMPDPITARESIWLPFMETELHCDEKTIIIGHSSGAIAAMRYAETHRVYALILVSAYTSEFGDENERASGYFSRPWQWEKIKANCPHIVQFGSTDDPFLPWKEQQEVADSWTPNCTNSLTVVTFRTQSSMN | not soluble |
| MSKSTRSRRKKKSKGGDRSERKTNKSERKKKGAKSDIGKKKKKNETVSKDQTNTGVSTGAEGVEKKEKEQWSGDETAKKLVASGAFNTSTITSGFKELSNPKPSADMCSIFKNNPKKSRAPDWPIADNKLIKLSHAPGNFICAAKVDVPEFNRTMIVTQIPDVTVSANIEDFWRMIFQEEIVSIVIAVMPLECSVTLQQLFPLLSGTFSNHGKMFLNNKKVDSAVAMTAYTLEVLPDGCSNSLLSTVYHLHNWKQKQGLENVGELVTTVEKVLKTNENTVLMSMNGIGRAGTMLTLFTSMLSVQKSKEVNPKEILIKLRGERSGLVENADQFNTVHRAMALWFKNKCSDEEVQKKVVEFAPNLTTEAVERSSYEYLNSQHFLYPILLESMLHQHQMKQVLLKKVERSMERSKL | not soluble |
| MESYLRLSEVDKQILHSHALMLDGLGNFFGSTHEVILHSLENLESSAIKVINGHFSNRKEGAPITDMALKMLSQVESEHDYAVKPYYNKNQKGVILKSSTIPVIGENDRIIGLICINMHLEMPLIDYLQDLLPSGQQNDMSQELKNSEHFSDNIDELITTSLTKVKQAVESDPNVSHLNQNKEIVIRLYDQGIFNLKDSVIKIADRLGISKNTIYLHIRNHKKEEA | not soluble |
| MTANREAIDMARVAAGAAAAKLADDVVVIDVSGQLVITDCFVIASGSNERQVNAIVDEVEEKMRQAGYRPARREGAREGRWTLLDYRDIVVHIQHQDDRNFYALDRLWGDCPVVPVDLSANSAGAQ | not soluble |
| MIKDVHRCFVIACIPGKKPYTLALSDFISATAACFKSGIPLKTLKESLENMKETYFRPLKVEEFELLRTWLTLVYKTLKEVLFPLTENKRGICDTDDSIYDEFVKSIVTAIREGYSMEKIRLEQVVTNTKTQPRTEFESALLSQSTRIVVQTVQIAKEFSSEQ | not soluble |
| MNLRGILPFAHDTLRKVVRSGDYVVDATCGNGHDTLLLAELVGINGHVLGFDIQQLAIDATNTRLENAGVSSQVELVCASHARIPEYTSKPVRAAIFNLGYLPGGDKEITTTADSTLESIGHLMELLEVGGVIILVIYHGHPAGKQEKDAVMTFCEAIPQQDFHVLSYNFINQKNDAPFVIIIEKRKPRQSLEHHHHHH | soluble |
| MLVNTKAKVGVFSIALGAYLPQFPSLVPEFEAQYEAFKKTIPDTVEIIDGGMVTTKEQSMVAGDKFRAADVDIVFLQMLTYATSYNMLPAIRDLDVPVVLVNVQKLKALDYDHTDIAAWLGEGYACGAVGEAVADLERAGKRHAVITGVVEGGDPAVQAEIEDWCKAAQVRRRFRDTNIAQIGRPYPGMMDLYIDETNLYNRMFLYTKQFDWEKMWAIADDITDEEAIRAKAQDILDTFDIEDGGTIEKVWDMAKYVVAFEKWVKDEHLSMVASHYDGFAQGKAGVLDSMLIPAFSMLIKQGTACAVEGDMKVAMAMSILKTISGTGQLSEMYSIDFNEDICIIGHSGSGDADISDKKPTMKIVPVFHGKTGGGYLTQFYPYTGPVTYLAITQDKDGHFKFVVAEGVNEEGPILSFGDTNMRTRFTCGAREFVNRWSEAGPTHHMAAATGRHIDTILKVAKIFNIPVDIVTR | not soluble |
| MPTIKDYYLPKRPTLLFSLHPEPTQAIINGTKILEYRRRFFARPFQAFVYTTGDNGGIQLFLRCDQGLQLVPEQLALVGALLQHDAPTTTAAYFEGAKAGLALPITAFTTLPNIPLAQLRRQFENFVTPRSYVFLDQPDRQAQLDWLLTQPCESLTILDWRKRYAALATLLQKLEHHHHHH | not soluble |
| MAHHHHHHMNVALIFGITGQDGSYLSELLLEKGYTVHGVIRRCSSFNTKRIDHIFDQLNLHYGDVLDSSSICKLISKIKPHEIYNLAAQSHVKVSFELPVYTAETTAVGTLRILEAIKISNLPDVKFYNASTSELFGSSTDDRQHESTPFNPVSPYAIAKLYSHYITICYRKSYQMFCVNGILFNHESPRRGETFVTRKITRGVANICKNRQNCLVLGDLSTYRDWGHAKDYVRAMYLMLQQDEPDDFVISSNEKHTVKEFCEISFSFVGIFLKWKGTGIQEVGVDQHDRVLIKKDPRYYRECDVFHLHGDSSKARQKLQWAPTYSFFQLIYEMLTYDFEQCSLPIDDFDTCVSRYENYRGVPTK | not soluble |
| MGSDKIHHHHHHMHVGIFADGGYEKGMGHVVRMKRLAEGLKQRCLITFYTNQDSEAFLHEEHWQVIVKPELQQHEFILREIKSKKLDLLLFDILGAPAELLKKIKTETDAKIVLFEEKNGKSIQYSDAVINGIYGDIRSRVYVQGNTRIYEGPDYLILHPAFQAAREDYTLKKDCRNILVALGGSDPKQLIFKVLAAADQVPDIKDKNMMFVMGSASPHQEAVRRRIEKKPQYKMIEQTNDMAGLMKQADAAIVAGGISLYEAICIGVPCLVLSQVEHQTATAKTFADQGAALDLGLGELVPDETLIYQMSRIMSSYPLRLSLHKGGRPLVDGKGIIRVTAILQDLYEQEI | not soluble |
| MAGEILVIGGGISGLTAAIEAAETGYDVILLEKNPYLGGRVSQLNKYFPKLCPPFCGLEILFKRMKSTPKLKYFTNAEVQEISGESGNFTVKVKLKPRYVNENCTACGACKEVCPIEAPDEYNFGLKKKKAIDLPNIMAMPFQYYIDDKYCNKCGECVSACKYNAIDLNEEEREMTLNVSSIIVATGWKPYDATKLDNLGYGKYKNVITNMEMERLASPNGPTGGVIQTMDGKPIETIAFVQCAGSRDENHLPYCSAICCLASLKQATYVREQYPDAKIYIFYIDIRAFGRYEDFFAKVKADEKIELIKGKVAKVEEVDGKLVVTAEDTLTGVKSKKEVDMVVLATGMQPAIEPIPGLELDEYGFVKPKPGIIPVGVAAMPMEVASANETATAAALKAIQLARRLEHHHHHH | soluble |
| MNTLYTLFATCPRGLETVLSQELESLGCTDVQVFDGGVSCRGGLEQVYAANLHSRTASRILLRLTKGTYRNERDIYKLAKNINWFNWFTLQQTFKVKVEAKRANVKSIQFVGLTVKDAVCDAFRDIYDARPSVDKAAPDVRIHAFLNERNVEIFIDTSGEALFKRGYRLDTGEAPLRENLAAGLLLSAGYDGTQPFQDPFCGSGTIAIEAAWIAARRAPGMMRRFGFEKLQNFDKTLWSDLRRRAEAQTRPVRAPIAGSDNDRRIVQTALDNARRAGVDDIVSFSVADAQSVRPNGENGIMVSNPPYGVRLEEVRALQALYPQLGTWLKKHYAGWLAAMFTGDREMPKFMCLSPKRKIPLYNGNIDCRLFLIDMVEGSNR | not soluble |
| MSDEQIDKLVSRLDGALNRLGNVKKDHPLESSSNSKPTHQPKSPAPYRQKIEKLSAEVVDSNPYSRLMALQRMGIVNEYERIREKTVAVVGVGGVGSVVAEMLTRCGIGKLILFDYDKVEIANMNRLFYQPNQAGLSKVEAARDTLIHVNPDVQIEVHNFNITTMDNFDTFVNRIRKGSLTDGKIDLVLSCVDNFEARMAVNMACNEENQIWMESGVSENAVSGHIQYIEPGKTACFACVPPLVVASGIDERTLKRDGVCAASLPTTMAVVAGFLVMNTLKYLLNFGEVSQYVGYNALSDFFPRDSIKPNPYCDDSHCLQRQKEYEEKVANQPVDLEVEVPEEETVVHEDNEWGIELVNESEPSAEQSSSLNAGTGLKFAYEPIKRDAQTELSPAQAATHDFMKSIKDKLVEEAQNKGK | not soluble |
